Laboratory results published in US20090099093A1 (Stanford University, published 2009).
Blank lines part the entries; values can stand above or below the binder they belong to. No end group written: not given here.

Target: Mushroom tyrosinase (mushroom, UniProt C7FF04 1-392)
Assay: cell-based or functional assay

Chain of Mushroom tyrosinase (C7FF04 1-392): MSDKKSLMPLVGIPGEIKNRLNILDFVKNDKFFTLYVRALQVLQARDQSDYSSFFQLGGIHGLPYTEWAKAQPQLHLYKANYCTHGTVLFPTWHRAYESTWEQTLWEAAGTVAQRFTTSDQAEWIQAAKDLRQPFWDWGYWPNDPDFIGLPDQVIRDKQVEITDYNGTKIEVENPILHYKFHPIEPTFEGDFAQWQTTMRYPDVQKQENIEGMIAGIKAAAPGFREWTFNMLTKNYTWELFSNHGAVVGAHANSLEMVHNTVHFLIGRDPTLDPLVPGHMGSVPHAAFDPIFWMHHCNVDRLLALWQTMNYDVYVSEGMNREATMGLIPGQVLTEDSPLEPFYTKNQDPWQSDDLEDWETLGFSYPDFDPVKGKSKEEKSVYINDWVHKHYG

IC50 (inhibition of mushroom tyrosinase activity, dopachrome at 475 nm, L-tyrosine substrate): 2730 µM
B1: PLG-OH (peptide)
peptide: Pro-Leu-Gly-OH

IC50 (inhibition of mushroom tyrosinase activity, dopachrome at 475 nm, L-tyrosine substrate): 8000 µM
B2: SF peptide (SFLLRN) (peptide)
peptide: SFLLRN

IC50 (inhibition of mushroom tyrosinase activity, dopachrome at 475 nm, L-tyrosine substrate): 123 µM
B3: RA peptide (RADSRADC) (peptide)
peptide: RADSRADC
